1 molecule from publication PMC5861439 (Nucleic Acids Research, 2017) can be followed below.

The test has as its target Saccharomyces cerevisiae Asf1 (2–169) (Saccharomyces cerevisiae, UniProt P32447 2-169). Nature of the test: ITC.

Sequence of Saccharomyces cerevisiae Asf1 (2–169) (P32447 2-169): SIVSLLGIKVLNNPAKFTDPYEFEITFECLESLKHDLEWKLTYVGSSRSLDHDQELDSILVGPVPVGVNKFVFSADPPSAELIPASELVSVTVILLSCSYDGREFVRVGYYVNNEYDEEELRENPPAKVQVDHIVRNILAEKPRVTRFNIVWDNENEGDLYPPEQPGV

B1: Rtt109^419–433 peptide (peptide)
peptide: LAITMLKPRKKAKAL
With B1, the Kd amounted to 7.78 ± 1.23 µM.

By Kd is commonly meant a measure of binding affinity in units of concentration. Low values mean higher affinity, high ones lower affinity.
